Data on one substance can be found in paper PMC9079618, “Evaluating Ylehd, a recombinant epoxide hydrolase from Yarrowia lipolytica as a potential biocatalyst for the resolution of benzyl glycidyl ether” (RSC Advances, 2018).

Holding throughout (experiment): purified protein
The test system of one data set is c1ccc(OCC2CO2)cc1. The following applies: 50 mM Tris pH 8.0, 30 °C, 30 min, 2 μg protein.
In a further data set the test system is c1ccc(OC[C@@H]2CO2)cc1. The following applies: 50 mM Tris pH 8.0, 30 °C, 30 min, 2 μg protein.
A further data set deals with c1ccc(OC[C@H]2CO2)cc1. The settings on record: 50 mM Tris pH 8.0, 30 °C, 30 min, 2 μg protein.
The test system of another data set is c1ccc(COCC2CO2)cc1. The format is biochemical, Yarrowia lipolytica. The following applies: 50 mM Tris pH 8.0, 30 °C, 30 min, 2 μg protein.
The test system of a further data set is c1ccc(COC[C@@H]2CO2)cc1. The data set is classed as biochemical, Yarrowia lipolytica. The settings on record: 50 mM Tris pH 8.0, 30 °C, 30 min, 2 μg protein.
A further data set concerns c1ccc(COC[C@H]2CO2)cc1. The data set is classed as biochemical, Yarrowia lipolytica. The following applies: 50 mM Tris pH 8.0, 30 °C, 30 min, 10 μg protein.

Consider Ylehd (Yarrowia lipolytica), for which the Km (in general, the substrate concentration at which the rate is half of its maximum) is 600 ± 9 µM in the data set on c1ccc(OCC2CO2)cc1; 930 ± 71 µM in the data set on c1ccc(OC[C@@H]2CO2)cc1; 1320 ± 45 µM with c1ccc(OC[C@H]2CO2)cc1; 150 ± 2 µM with c1ccc(COCC2CO2)cc1; 270 ± 24 µM in the data set on c1ccc(COC[C@@H]2CO2)cc1; 800 ± 10 µM in the data set on c1ccc(COC[C@H]2CO2)cc1. The kcat (usually the number of substrate molecules converted per active site and unit of time at saturation) in the data set with c1ccc(OCC2CO2)cc1 was 7.34 s⁻¹; in the data set with c1ccc(OC[C@@H]2CO2)cc1, 15.7 s⁻¹; with c1ccc(OC[C@H]2CO2)cc1 it was 33.8 s⁻¹; in the data set with c1ccc(COCC2CO2)cc1, 5.73 ± 0.54 s⁻¹; with c1ccc(COC[C@@H]2CO2)cc1, 12 ± 0.97 s⁻¹; with c1ccc(COC[C@H]2CO2)cc1, 3.45 ± 0.089 s⁻¹. Besides, the kcat/Km (in general, the turnover number divided by the Michaelis constant) in the data set with c1ccc(OCC2CO2)cc1 is 12200 M⁻¹ s⁻¹; in the data set on c1ccc(OC[C@@H]2CO2)cc1, 16600 M⁻¹ s⁻¹; in the data set with c1ccc(OC[C@H]2CO2)cc1, 25500 M⁻¹ s⁻¹; in the data set on c1ccc(COCC2CO2)cc1 it was 38200 ± 1080 M⁻¹ s⁻¹; in the data set on c1ccc(COC[C@@H]2CO2)cc1, 44700 ± 870 M⁻¹ s⁻¹; in the data set with c1ccc(COC[C@H]2CO2)cc1, 4310 ± 70 M⁻¹ s⁻¹.
